Here are results for one molecule from PMC6755812.

In experiment [1] the target is Escherichia coli thioredoxin reductase (E. coli) (UniProt P0A9P4).
Experiment [2] deals with Escherichia coli peptide methionine sulfoxide reductase A (E. coli) (UniProt P0A744).
The target of experiment [3] is bovine pancreas insulin (bovine).
Sequence of bovine pancreas insulin (bovine) (P01317 25-54, chain 1 of 2): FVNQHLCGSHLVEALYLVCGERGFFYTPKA
Sequence of bovine pancreas insulin (bovine) (P01317 85-105, chain 2 of 2): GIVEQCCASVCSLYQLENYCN

Sequence of Escherichia coli peptide methionine sulfoxide reductase A (E. coli) (P0A744 2-212): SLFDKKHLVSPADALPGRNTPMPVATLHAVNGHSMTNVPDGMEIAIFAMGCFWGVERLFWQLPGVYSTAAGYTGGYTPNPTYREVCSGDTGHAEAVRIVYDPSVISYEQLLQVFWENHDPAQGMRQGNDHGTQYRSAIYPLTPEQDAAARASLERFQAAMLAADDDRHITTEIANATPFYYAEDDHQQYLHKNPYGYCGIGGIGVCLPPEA
Sequence of Escherichia coli thioredoxin reductase (E. coli) (P0A9P4 2-321): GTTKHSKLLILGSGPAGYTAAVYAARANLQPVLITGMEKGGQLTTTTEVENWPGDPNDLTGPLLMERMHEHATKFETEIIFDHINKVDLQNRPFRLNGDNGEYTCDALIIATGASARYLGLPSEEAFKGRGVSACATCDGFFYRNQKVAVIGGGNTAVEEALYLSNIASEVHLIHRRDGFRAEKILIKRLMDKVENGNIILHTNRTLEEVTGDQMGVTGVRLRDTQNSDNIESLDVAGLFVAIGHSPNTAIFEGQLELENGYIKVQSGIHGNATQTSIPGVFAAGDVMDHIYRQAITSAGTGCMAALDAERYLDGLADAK

B1: human thioredoxin (enzyme)
chain: MVKQIESKTAFQEALDAAGDKLVVVDFSATWCGPCKMIKPFFHSLSEKYSNVIFLEVDVDDCQDVASECEVKCMPTFQFFKKGQKVGEFSGANKEKLEATINELV
Take B1: the Catalytic activity of S-MetO reduction by NADPH (Vi/[Trx]) in the reconstituted NADPH/TrxR/Trx/MsrA chain (4.5 μM TrxR, 4.5 μM MsrA, 0.1-1.0 μM Trx, pH 7.0, 25 °C) in experiment [1] is 0.22 min^−1. In experiment [2], this molecule returned a k1: rate constant of Trx–MsrA mixed disulfide formation (stopped-flow fluorescence, 1 μM oxidized MsrA, 5-100 μM reduced Trx, pH 7.0, 25 °C) of 221000 M^−1 s^−1; a k2: rate constant of mixed disulfide dissociation to reduced MsrA and oxidized Trx (stopped-flow fluorescence, pH 7.0, 25 °C) of 3.63 s^−1. Besides, the Specific insulin reductase activity (0.13 mM insulin, 1 mM DTT, 0.5-2.0 μM Trx, onset of aggregation at OD650, pH 7.0, 25 °C) in experiment [3] amounted to 0.155 min^−1 μM^−1.
